Here are results for one substance from article doi:10.1101/2023.12.10.570962 (bioRxiv, 2023).

In general, stoichiometry N refers to a count of units in the complex or per binding partner.

The target in the test is Legionella collagen-like protein (Lcl) from L. pneumophila strain 130b, intact, residues 1-401 (Legionella pneumophila strain 130b). Description: SEC-MALS. On the technique in general: In gel filtration, larger molecules generally elute earlier.

Substance “Legionella collagen-like protein (Lcl) from L. pneumophila strain 130b, intact, residues 1-401 (natural protein)” came in with a stoichiometry N of 3.
